Positions count from the first letter of the chain named.
B1: WT: wild-type human L-selectin, C-terminally tagged with GFP or RFP, expressed in THP-1 cells (protein)
chain: WTYHYSEKPMNWQRARRFCRDNYTDLVAIQNKAEIEYLEKTLPFSRSYYWIGIRKIGGIWTWVGTNKSLTEEAENWGDGEPNNKKNKEDCVEIYIKRNKDAGKWNDDACHKLKAALCYTASCQPWSCSGHGECVEIINNYTCNCDVGYYGPQCQFVIQCEPLEAPELGTMDCTHPLGNFSFSSQCAFSCSEGTNLTGIEETTCGPFGNWSSPEPTCQVIQCEPLSAPDLGIMNCSHPLASFSFTSACTFICSEGTELIGKKKTICESSGIWSNPSPICQKLDKSFSMIKEGDYNPLFIPVAVMVTAFSGLAFIIWLARRLKKGKKSKRSMNDPY
modifications: left off: eGFP (donor copy) or mCherry (acceptor copy, called RFP), C-terminal, kept
B2: SSAA: L-selectin with Ser^364 and Ser^367 both mutated to alanines (protein)
chain: B1 chain with S326A, S329A
modifications: left off: eGFP (donor copy) or mCherry (acceptor copy, called RFP), C-terminal, kept

How the values were obtained:
[1] = tested on: THP-1 cells over TNF-α-activated HUVEC; experiment: Pseudopod protrusion scoring in TEM under flow; format: cell-based, human; conditions: for cells with 2 protrusions / cells with 0 protrusions: 15 min time point, mean of 3 fields of view per flow experiment, three occasions, at least 180 cells per group, % printed; for cells with 2 protrusions: significance ** S367A p ≤ 0.01 (Tukey); for cells with 0 protrusions: significance *** S367A p ≤ 0.001, ** SSAA p ≤ 0.01 (Tukey)
Protocol: (A) The number of protrusions formed over this period was scored as: zero, one, two, or >2. (B) The percentages of cells bearing these protrusions were scored at specific time points: 6 min (blue bars), 15 min (green bars), or 25 min (red bars). Supplementary Videos 2, 3, 4 provide examples of cells producing a range of protrusions as TEM proceeds. Data represent SEM of 3 fields of view per flow experiment, conducted on three separate occasions, and at least 180 cells analyzed per group. Values of the vertical lines indicate the differences in protrusion number (specifically “zero” and “two”) corresponding to each of the cell lines, for which statistical significance is shown in Table 1.
All flow experiments were performed using a 35 mm diameter Glycotech parallel plate flow chamber. Perfusion experiments were performed at 1.5 dyn/cm^2 using a Harvard Apparatus 2000 PHD syringe pump. Perfusion media consisted of: RPMI supplemented with L-glutamine, 10% FCS, 1% penicillin/streptomycin, 50 μM β-mercaptoethanol, and 25 mM HEPES. Human Umbilical Vein Endothelial Cells (HUVEC–Lonza) were seeded onto 35 mm diameter glass coverslips (no. 1 thickness; VWR) that were pre-coated with 10 μg/mL fibronectin (37°C for at least 1 h). Before each perfusion assay, HUVEC were stimulated overnight (16 h) with 10 ng/mL carrier-free recombinant human TNF-α (R&D Systems). Each perfusion assay was performed by injecting a bolus of cells for 6 min, followed by just perfusion media (without cells) for the […]. THP-1 cells were perfused at a density of 0.5 ×10^6 cells per mL. THP-1 cells treated with 10 μM TAPI-0 required a preincubation time of 10 min at 37°C before perfusion over TNF-α-activated HUVEC. Note that 10 μM TAPI-0 was also supplemented in the perfusate. Stills were acquired once every 10 seconds using 10 × objective lens.

[2] = tested on: THP-1 cells over TNF-α-activated HUVEC; experiment: L-selectin-GFP/RFP clustering in mid-TEM under flow, FLIM/FRET; format: cell-based, human; conditions: 15 min perfusion at 1.5 dyn/cm^2, fixed in mid-TEM; Top = non-transmigrated uropods, Base = transmigrated pseudopods; at least 45 cells, 3 experiments; no TAPI-0
Protocol: (A) Line scanning confocal microscopic image of THP-1 cells, stably expressing GFP, captured in mid-TEM—following 15 min of perfusion over TNF-α-activated HUVEC monolayers. […] “Top” and “Base,” respectively, represent the apical and basolateral aspect of the endothelium (x63 objective lens, Leica SP5). Scale bar = 24 μm. (B,C) THP-1 cells expressing WT, SSAA, or SSDD L-selectin-GFP/RFP were perfused over TNF-α-activated HUVEC and fixed after 15 min of perfusion. […] Lifetime images taken of at least 45 cells and analyzed over 3 independent experiments was quantified and expressed as FRET efficiency. Images representative of three independent experiments, where at least 45 cells of each group was analyzed at two optical sections, Top and Base, as indicated in the cartoon of a yellow monocyte captured in mid-TEM crossing a red endothelium. Individual GFP channel and lifetime images are provided for each cell line. The lifetime of fluorescence is expressed in a pseudocolour scale from red (low lifetime with a very high probability of interaction) to blue (high lifetime with a very low probability of interaction). Statistics: unpaired student t-test ***p ≤ 0.001.
Cells expressing WT L-selectin-GFP/RFP were treated for 30 min with 10 μM TAPI-0 and subsequently perfused over TNF-activated HUVEC monolayers for 15 min prior to fixation and analysis for FRET by FLIM (see Materials and Methods for more detail). […] (B) Images representative of three independent experiments, where at least 45 cells of each group were analyzed at two optical sections–non-transmigrated uropods (Top) and transmigrated pseudopods (Base). GFP fluorescence channel and lifetime images are provided for each cell line. The lifetime of fluorescence is expressed in a pseudocolour scale from red (low lifetime with a very high probability of interaction) to blue (high lifetime with a very low probability of interaction). […]
FLIM measurement of FRET was performed with a multiphoton microscope system as described previously ([8], [23]). […] Fluorescence lifetime imaging capability was provided by time-correlated, single-photon counting electronics (SPC 700; Becker & Hickl). […] Data were analyzed as previously described ([65]). The FRET efficiency is related to the molecular separation of donor and acceptor and the fluorescence lifetime of the interacting fraction by: […]
where ηFRET is the FRET efficiency, R0 is the Förster radius, r is the molecular separation, τFRET is the lifetime of the interacting fraction and τd is the lifetime of the donor in the absence of an acceptor. The donor- only control is used as the reference against which all of other lifetimes are calculated in each experiment. τFRET and τd can also be taken to be the lifetime of the interacting fraction and non-interacting fraction, respectively. […]

| Molecule | cells with 2 protrusions [1] [%] | cells with 0 protrusions [1] | subcellular distribution of L-selectin clustering during TEM (FLIM/FRET) [2] | protrusive activity profile in TEM (in words) ([1]; 6, 15 and 25 min of flow over TNF-α-activated HUVEC) |
| --- | --- | --- | --- | --- |
| B1 | 36.2 | 7.9% | clustered exclusively within transmigrated pseudopods |  |
| B2 | 24.9 | 22.4^** % | phenocopied the subcellular distribution of WT L-selectin | phenocopied more the S367A than the S364A cell line |

From paper PMC6774396 (Frontiers in Immunology, 2019)
